According to publication PMC8465381, “Dopamine-Conjugated Carbon Dots Inhibit Human Calcitonin Fibrillation” (Nanomaterials, 2021):
Positions of bridges follow the written chain, without caps; N, C: chain ends. No end group written: not given here.

Target: the molecule itself
Assay: thioflavin-T fluorescence kinetics + TEM; 64 μM hCT alone, 50 mM phosphate buffer pH 7.4, 16 μM ThT, 1% DMSO, 25 °C, 384-well nonbinding plate with agitation every 2 h; end products negatively stained for TEM; fibril formation (self-assembly)

B1: Human calcitonin (peptide, UniProt P01258 85-116, looked up)
peptide: CGNLSTCMLGTYTQDFNKFHTFPQTAIGVGAP-NH2
modifications: disulfide 1-7
notes: human calcitonin, 32-residue hormone peptide cut from the calcitonin precursor; numbers count on: the mature protein; Forms amyloid fibrils; preformed fibrils of the same peptide were used as seeds; also called hCT; source: synthetic peptide (Fmoc solid-phase synthesis, RP-HPLC purified)
binding result: binds
